Reference: patent US20090170126A1
Blank lines part the entries; values can stand above or below the molecule they belong to. Ends that are not written are not given here.

How the values were obtained:
[1] = biological target: commercially available anti-prostasin mouse monoclonal antibody (BD Biosciences, catalog No. 612173); experiment: competitive immunoassay, commercial monoclonal antibody-immobilized plate; competitor POD-labeled recombinant full-length prostasin 6.4 µg/mL; unlabeled recombinant full-length prostasin 5 ng/mL
[2] = biological target: commercially available anti-prostasin mouse monoclonal antibody (BD Biosciences, catalog No. 612173); experiment: competitive immunoassay, commercial monoclonal antibody-immobilized plate; competitor POD-labeled recombinant full-length prostasin 6.4 µg/mL; unlabeled recombinant full-length prostasin 50 ng/mL
[3] = biological target: commercially available anti-prostasin mouse monoclonal antibody (BD Biosciences, catalog No. 612173); experiment: competitive immunoassay, commercial monoclonal antibody-immobilized plate; competitor POD-labeled recombinant full-length prostasin 6.4 µg/mL; unlabeled recombinant full-length prostasin 25 ng/mL
[4] = biological target: commercially available anti-prostasin mouse monoclonal antibody (BD Biosciences, catalog No. 612173); experiment: competitive immunoassay, commercial monoclonal antibody-immobilized plate; competitor POD-labeled recombinant full-length prostasin 6.4 µg/mL; unlabeled recombinant full-length prostasin 0 ng/mL
[5] = biological target: commercially available anti-prostasin mouse monoclonal antibody (BD Biosciences, catalog No. 612173); experiment: competitive immunoassay, commercial monoclonal antibody-immobilized plate; competitor POD-labeled recombinant full-length prostasin 6.4 µg/mL; unlabeled recombinant full-length prostasin 10 ng/mL
[6] = biological target: commercially available anti-prostasin mouse monoclonal antibody (BD Biosciences, catalog No. 612173); experiment: competitive immunoassay, commercial monoclonal antibody-immobilized plate; competitor POD-labeled recombinant full-length prostasin 6.4 µg/mL; unlabeled recombinant full-length prostasin 100 ng/mL
[7] = biological target: affinity-purified antibody (e); experiment: competitive immunoassay, antibody (e)-immobilized plate; competitor POD-labeled partial peptide (e) 0.30 µg/mL; unlabeled peptide (e) 5 ng/mL
[8] = biological target: affinity-purified antibody (e); experiment: competitive immunoassay, antibody (e)-immobilized plate; competitor POD-labeled partial peptide (e) 0.30 µg/mL; unlabeled peptide (e) 100 ng/mL
[9] = biological target: affinity-purified antibody (e); experiment: competitive immunoassay, antibody (e)-immobilized plate; competitor POD-labeled partial peptide (e) 0.30 µg/mL; unlabeled peptide (e) 25 ng/mL
[10] = biological target: affinity-purified antibody (e); experiment: competitive immunoassay, antibody (e)-immobilized plate; competitor POD-labeled partial peptide (e) 0.30 µg/mL; unlabeled peptide (e) 10 ng/mL
[11] = biological target: affinity-purified antibody (e); experiment: competitive immunoassay, antibody (e)-immobilized plate; competitor POD-labeled partial peptide (e) 0.30 µg/mL; unlabeled peptide (e) 0 ng/mL
[12] = biological target: affinity-purified antibody (e); experiment: competitive immunoassay, antibody (e)-immobilized plate; competitor POD-labeled partial peptide (e) 0.30 µg/mL; unlabeled peptide (e) 50 ng/mL
[13] = biological target: affinity-purified antibody (a); experiment: antibody (a)-immobilized plate; POD-labeled peptide (a) 0.05 µg/mL; competitor unlabeled partial peptide (a) 50 ng/mL
[14] = biological target: affinity-purified antibody (a); experiment: difference of absorbance between 0 and 50 ng/mL unlabeled partial peptide (a); antibody (a)-immobilized plate; POD-labeled peptide (a) 0.20 µg/mL
[15] = biological target: affinity-purified antibody (a); experiment: difference of absorbance between 0 and 50 ng/mL unlabeled partial peptide (a); antibody (a)-immobilized plate; POD-labeled peptide (a) 0.25 µg/mL
[16] = biological target: affinity-purified antibody (a); experiment: antibody (a)-immobilized plate; POD-labeled peptide (a) 0.15 µg/mL; unlabeled partial peptide (a) 0 ng/mL
[17] = biological target: affinity-purified antibody (a); experiment: antibody (a)-immobilized plate; POD-labeled peptide (a) 0.25 µg/mL; competitor unlabeled partial peptide (a) 50 ng/mL
[18] = biological target: affinity-purified antibody (a); experiment: antibody (a)-immobilized plate; POD-labeled peptide (a) 0.025 µg/mL; unlabeled partial peptide (a) 0 ng/mL
[19] = biological target: affinity-purified antibody (a); experiment: antibody (a)-immobilized plate; POD-labeled peptide (a) 0.10 µg/mL; unlabeled partial peptide (a) 0 ng/mL
[20] = biological target: affinity-purified antibody (a); experiment: difference of absorbance between 0 and 50 ng/mL unlabeled partial peptide (a); antibody (a)-immobilized plate; POD-labeled peptide (a) 0.025 µg/mL
[21] = biological target: affinity-purified antibody (a); experiment: antibody (a)-immobilized plate; POD-labeled peptide (a) 0.10 µg/mL; competitor unlabeled partial peptide (a) 50 ng/mL
[22] = biological target: affinity-purified antibody (a); experiment: antibody (a)-immobilized plate; POD-labeled peptide (a) 0.05 µg/mL; unlabeled partial peptide (a) 0 ng/mL
[23] = biological target: affinity-purified antibody (a); experiment: antibody (a)-immobilized plate; POD-labeled peptide (a) 0.025 µg/mL; competitor unlabeled partial peptide (a) 50 ng/mL
[24] = biological target: affinity-purified antibody (a); experiment: antibody (a)-immobilized plate; POD-labeled peptide (a) 0.15 µg/mL; competitor unlabeled partial peptide (a) 50 ng/mL
[25] = biological target: affinity-purified antibody (a); experiment: antibody (a)-immobilized plate; POD-labeled peptide (a) 0.20 µg/mL; competitor unlabeled partial peptide (a) 50 ng/mL
[26] = biological target: affinity-purified antibody (a); experiment: antibody (a)-immobilized plate; POD-labeled peptide (a) 0.25 µg/mL; unlabeled partial peptide (a) 0 ng/mL
[27] = biological target: affinity-purified antibody (a); experiment: difference of absorbance between 0 and 50 ng/mL unlabeled partial peptide (a); antibody (a)-immobilized plate; POD-labeled peptide (a) 0.10 µg/mL
[28] = biological target: affinity-purified antibody (a); experiment: antibody (a)-immobilized plate; POD-labeled peptide (a) 0.20 µg/mL; unlabeled partial peptide (a) 0 ng/mL
[29] = biological target: affinity-purified antibody (a); experiment: difference of absorbance between 0 and 50 ng/mL unlabeled partial peptide (a); antibody (a)-immobilized plate; POD-labeled peptide (a) 0.05 µg/mL
[30] = biological target: affinity-purified antibody (a); experiment: difference of absorbance between 0 and 50 ng/mL unlabeled partial peptide (a); antibody (a)-immobilized plate; POD-labeled peptide (a) 0.15 µg/mL
[31] = biological target: affinity-purified antibody (c); experiment: competitive immunoassay, antibody (c)-immobilized plate; competitor POD-labeled partial peptide (c) 0.35 µg/mL; unlabeled peptide (c) 0 ng/mL
[32] = biological target: affinity-purified antibody (c); experiment: competitive immunoassay, antibody (c)-immobilized plate; competitor POD-labeled partial peptide (c) 0.35 µg/mL; unlabeled peptide (c) 10 ng/mL
[33] = biological target: affinity-purified antibody (c); experiment: competitive immunoassay, antibody (c)-immobilized plate; competitor POD-labeled partial peptide (c) 0.35 µg/mL; unlabeled peptide (c) 5 ng/mL
[34] = biological target: affinity-purified antibody (c); experiment: competitive immunoassay, antibody (c)-immobilized plate; competitor POD-labeled partial peptide (c) 0.35 µg/mL; unlabeled peptide (c) 50 ng/mL
[35] = biological target: affinity-purified antibody (c); experiment: competitive immunoassay, antibody (c)-immobilized plate; competitor POD-labeled partial peptide (c) 0.35 µg/mL; unlabeled peptide (c) 25 ng/mL
[36] = biological target: affinity-purified antibody (c); experiment: competitive immunoassay, antibody (c)-immobilized plate; competitor POD-labeled partial peptide (c) 0.35 µg/mL; unlabeled peptide (c) 100 ng/mL

absorbance (Abs) [1]: 1.21 Abs | absorbance (Abs) [2]: 1.09 Abs | absorbance (Abs) [3]: 1.12 Abs | absorbance (Abs) [4]: 1.18 Abs | absorbance (Abs) [5]: 1.19 Abs | absorbance (Abs) [6]: 1.22 Abs
Molecule: recombinant protein of full-length prostasin (prepared according to the method of Chen, L-M. et al., J. Biol. Chem., Vol. 276, pp. 21434-21442, 2001) (from UniProt Q16651 33-322) (enzyme)

absorbance (Abs) [7]: 1.96 Abs | absorbance (Abs) [8]: 1.49 Abs | absorbance (Abs) [9]: 1.55 Abs | absorbance (Abs) [10]: 1.62 Abs | absorbance (Abs) [11]: 1.97 Abs | absorbance (Abs) [12]: 1.41 Abs
Molecule: PQTQESQPDSN [partial peptide (e) of prostasin]

absorbance (Abs) [13]: 0.477 Abs | ΔOD [absorbance (Abs)] [14]: 0.901 Abs | ΔOD [absorbance (Abs)] [15]: 0.925 Abs | absorbance (Abs) [16]: 2.04 Abs | absorbance (Abs) [17]: 1.99 Abs | absorbance (Abs) [18]: 0.418 Abs | absorbance (Abs) [19]: 1.41 Abs | ΔOD [absorbance (Abs)] [20]: 0.187 Abs | absorbance (Abs) [21]: 0.809 Abs | absorbance (Abs) [22]: 0.815 Abs | absorbance (Abs) [23]: 0.231 Abs | absorbance (Abs) [24]: 1.25 Abs | absorbance (Abs) [25]: 1.5 Abs | absorbance (Abs) [26]: 2.91 Abs | ΔOD [absorbance (Abs)] [27]: 0.596 Abs | absorbance (Abs) [28]: 2.4 Abs | ΔOD [absorbance (Abs)] [29]: 0.338 Abs | ΔOD [absorbance (Abs)] [30]: 0.79 Abs
Molecule: AHQLDSYSEDAKVSTLKDI (also: peroxidase (POD) label, attachment site not given here) [POD-labeled partial peptide (a)]

absorbance (Abs) [31]: 1.09 Abs | absorbance (Abs) [32]: 1.11 Abs | absorbance (Abs) [33]: 1.08 Abs | absorbance (Abs) [34]: 0.938 Abs | absorbance (Abs) [35]: 1.12 Abs | absorbance (Abs) [36]: 0.943 Abs
Molecule: NCLYNIDAKPEEPHFVQED [partial peptide (c) of prostasin]
